Here are results for ten molecules from patent publication US20140178935A1 (AVEO PHARMACEUTICALS, published 2014).

The target in experiment [1] is T1, recombinant human HGF (R&D Systems, Catalog No. 294-HGN-025) (human, UniProt P14210 32-728).
T1 construct: Mature HGF is a disulfide-linked heterodimer of alpha and beta chain cut from one precursor; also called rhHGF (R&D Systems); rhHGF
Description: SPR (BIAcore T100), antibody captured on mouse anti-human immunoglobulin CM4 chip, HGF 1.88, 3.75 and 7.5 nM injected, 25 C. The protocol: Antigen-binding affinity and kinetics of interaction were assessed by surface plasmon resonance technology using a BIAcore T100 instrument. Mouse anti-human immunoglobulins (Jackson ImmunoResearch Labs, 209-005-098) were immobilized on carboxymethylated dextran CM4 sensor chips (BIAcore, Catalog No. BR-1005-34) by amine coupling (BIAcore, Catalog No. BR-1000-50) using a standard coupling protocol according to manufacturer's recommendations. The analyses were performed at 25° C. using PBS (GIBCO, Catalog No. 14040-133) containing 0.05% surfactant P20 (BIAcore, Catalog No. BR-1000-54), 2 mg/mL BSA (EMD, Catalog No. 2930) and 10 mg/mL CM-Dextran Sodium salt (Fluka, Catalog No. 86524) as running buffer.
The antibodies were captured on individual flow cell at a flow rate of 10 μL/min. Injection time was variable for each antibody to yield approximately 20 RU of antibody captured for each cycle. […] The dissociation phase was monitored for 15 or 90 minutes, depending on concentration. The surface then was regenerated with 10 mM Glycine-HCl, pH 2.0 (BIAcore, Catalog No. BR-1003-55) injected for 3 minutes at a flow rate of 60 μL/min before another cycle was initiated. […] Determination of kinetic parameters was achieved using the kinetic function of the BIAevalutation software with reference subtraction.
Background: SPR reads the build-up and loss of mass on a sensor chip optically.

In experiment [2] the target is T1, recombinant human HGF (R&D Systems, …). Description: cell-based or functional assay.
Experiment [3] has as its target hHGF-Fc G555E (recombinant hHGF protein containing a glycine to glutamate substitution at position 555) (human). Briefly: SPR, antibody immobilized, HGF protein injected, 25 C. How it is done: (§1) Each antibody was immobilized on a carboxymethylated dextran CM5 sensor chip (BIAcore, Catalog No. BR-1006-68) by amine coupling (BIAcore, Catalog No. BR-1000-50) using a standard coupling protocol according to manufacturer's instructions.
(§2) Analyses were performed at 25° C. using PBS (GIBCO, Catalog No. 14040-133) containing 0.05% surfactant P20 (BIAcore, Catalog No. R-1000-54), 2 mg/mL BSA (EMD, Catalog No. 2930) and 10 mg/mL CM-Dextran Sodium salt (Fluka, Catalog No. 86524) as running buffer. […] The resulting binding was determined as resonance units (RU) over baseline 30 seconds after the end of injection. […] Non-specific binding was monitored by comparing binding to a control surface where mouse IgG (Rockland, Catalog No. 010-0102) was immobilized using the same amine coupling procedure.

For experiment [4], the target named is T2, recombinant mouse HGF (R&D Systems) (mouse, UniProt Q08048 33-728).
T2 construct: Bought protein, construct not described; also called rmHGF (R&D Systems); murine HGF
T2 sequence (Q08048 33-728 limits assumed): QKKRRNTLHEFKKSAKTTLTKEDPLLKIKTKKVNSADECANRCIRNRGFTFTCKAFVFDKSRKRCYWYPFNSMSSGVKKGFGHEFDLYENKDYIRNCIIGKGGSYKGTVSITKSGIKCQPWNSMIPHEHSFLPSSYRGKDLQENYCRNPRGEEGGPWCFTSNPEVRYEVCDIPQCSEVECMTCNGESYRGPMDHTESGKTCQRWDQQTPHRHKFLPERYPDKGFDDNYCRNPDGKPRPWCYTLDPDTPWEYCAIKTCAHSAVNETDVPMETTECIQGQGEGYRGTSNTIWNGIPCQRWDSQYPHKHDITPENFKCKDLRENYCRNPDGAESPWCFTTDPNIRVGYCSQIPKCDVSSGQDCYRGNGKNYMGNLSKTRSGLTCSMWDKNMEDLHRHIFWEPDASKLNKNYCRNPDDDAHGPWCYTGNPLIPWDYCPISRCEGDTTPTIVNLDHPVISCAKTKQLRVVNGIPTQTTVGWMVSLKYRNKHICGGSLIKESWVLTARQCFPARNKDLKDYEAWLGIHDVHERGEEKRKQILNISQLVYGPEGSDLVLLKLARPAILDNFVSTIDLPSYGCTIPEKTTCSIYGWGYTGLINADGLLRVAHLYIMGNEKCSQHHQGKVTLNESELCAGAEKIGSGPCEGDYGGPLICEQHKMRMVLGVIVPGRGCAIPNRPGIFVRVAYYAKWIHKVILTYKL
Described as above. The protocol:
as §1, §2

Experiment [5] deals with hHGF-Fc C561R (recombinant hHGF protein containing a cysteine to arginine substitution at position 561) (human). Described as above. The protocol: as §1, §2
hHGF-Fc C561R (recombinant hHGF protein containing a cysteine to arginine substitution at position 561) (human), sequence (chain, as listed by the source C561R C561R limits assumed): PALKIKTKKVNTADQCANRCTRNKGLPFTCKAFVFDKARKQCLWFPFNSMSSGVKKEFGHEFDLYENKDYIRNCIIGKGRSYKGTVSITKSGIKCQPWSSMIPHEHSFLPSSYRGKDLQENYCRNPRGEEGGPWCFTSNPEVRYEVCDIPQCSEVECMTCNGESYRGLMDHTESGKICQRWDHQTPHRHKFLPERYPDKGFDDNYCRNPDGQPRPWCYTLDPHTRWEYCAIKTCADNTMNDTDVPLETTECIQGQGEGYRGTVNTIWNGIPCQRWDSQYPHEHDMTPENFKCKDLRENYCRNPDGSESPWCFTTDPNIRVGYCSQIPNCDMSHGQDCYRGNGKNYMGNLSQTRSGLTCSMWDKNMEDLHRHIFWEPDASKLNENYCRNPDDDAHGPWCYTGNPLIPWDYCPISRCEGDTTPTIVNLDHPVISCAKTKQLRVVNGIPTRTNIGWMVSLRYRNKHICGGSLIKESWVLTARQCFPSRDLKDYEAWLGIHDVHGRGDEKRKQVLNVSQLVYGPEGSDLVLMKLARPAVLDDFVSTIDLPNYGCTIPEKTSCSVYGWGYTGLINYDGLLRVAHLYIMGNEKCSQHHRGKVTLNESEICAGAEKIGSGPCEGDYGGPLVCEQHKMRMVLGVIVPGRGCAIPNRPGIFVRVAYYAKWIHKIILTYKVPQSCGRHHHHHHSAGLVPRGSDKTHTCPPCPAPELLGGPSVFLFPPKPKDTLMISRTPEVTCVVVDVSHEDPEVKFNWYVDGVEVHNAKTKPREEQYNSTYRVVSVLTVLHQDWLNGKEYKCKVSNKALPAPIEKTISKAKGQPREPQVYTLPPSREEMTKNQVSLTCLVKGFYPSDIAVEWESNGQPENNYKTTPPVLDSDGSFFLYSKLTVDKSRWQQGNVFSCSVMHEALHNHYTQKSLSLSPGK
Experiment [6] has as its target T1, recombinant human HGF (R&D Systems, …). Description: cell-based or functional assay. This is another data set of the same source.
Experiment [7] shares this target. Briefly: SPR, antibody captured by anti-mouse Ig, HGF injected, 25 C. How it is done: Rabbit anti-mouse immunoglobulins (BIAcore, Catalog No. BR-1005-14) were immobilized on carboxymethylated dextran CM5 sensor chips (BIAcore, Catalog No. BR-1006-68) by amine coupling (BIAcore, Catalog No. BR-1000-50) using a standard coupling protocol according to manufacturer's instructions. The analyses were performed at 25° C. using PBS (GIBCO, Catalog No. 14040-133) containing 0.05% surfactant P20 (BIAcore, Catalog No. BR-1000-54), 2 mg/mL BSA (EMD, Catalog No. 2930), and 10 mg/mL CM-Dextran Sodium salt (Fluka, Catalog No. 86524) as running buffer.
The antibodies were captured in an individual flow cell at a flow rate of 10 μL/min. Injection time was variable for each antibody to yield approximately 20 RU of antibody captured for each cycle. […] The dissociation phase was monitored for 15 or 90 minutes, depending on concentration. The surface then was regenerated with 10 mM Glycine-HCl, pH 1.7 (BIAcore, Catalog No. BR-1003-54) injected for 3 minutes at a flow rate of 60 μL/min before another cycle was initiated.
Kinetic parameters were determined using the kinetic function of the BIAevalutation software with reference subtraction.

Experiment [8] has the same target. Briefly: competition ELISA (DELFIA): antibody inhibits c-Met binding to plate-coated HGF. The protocol: The plates then were blocked with 200 μL of 5% non-fat dry milk in PBS for 1 hour at room temperature. […] 100 μL of sample per well was transferred to the assay plate and incubated overnight at 4° C.
The resulting plates then were washed three times with PBS-0.1% Tween 20, and incubated for 1 hour at room temperature with Eu-labeled Streptavidin (Wallac, Catalog No. 1244-360) diluted 1:1000 in DELFIA assay buffer (Wallac, Catalog No. 4002-0010). The resulting plates were washed 3 times with DELFIA wash solution (Wallac, Catalog No. 4010-0010) and incubated with 100 μL/well DELFIA enhancement solution (Wallac #4001-0010) for 15 minutes at room temperature with agitation.
The plates were read on Victor³V instrument (Perkin Elmer) using the Europium method.
In general terms: An ELISA detects its analyte on a solid surface through an enzyme-linked reagent.

T1 sequence (P14210 32-728 limits assumed): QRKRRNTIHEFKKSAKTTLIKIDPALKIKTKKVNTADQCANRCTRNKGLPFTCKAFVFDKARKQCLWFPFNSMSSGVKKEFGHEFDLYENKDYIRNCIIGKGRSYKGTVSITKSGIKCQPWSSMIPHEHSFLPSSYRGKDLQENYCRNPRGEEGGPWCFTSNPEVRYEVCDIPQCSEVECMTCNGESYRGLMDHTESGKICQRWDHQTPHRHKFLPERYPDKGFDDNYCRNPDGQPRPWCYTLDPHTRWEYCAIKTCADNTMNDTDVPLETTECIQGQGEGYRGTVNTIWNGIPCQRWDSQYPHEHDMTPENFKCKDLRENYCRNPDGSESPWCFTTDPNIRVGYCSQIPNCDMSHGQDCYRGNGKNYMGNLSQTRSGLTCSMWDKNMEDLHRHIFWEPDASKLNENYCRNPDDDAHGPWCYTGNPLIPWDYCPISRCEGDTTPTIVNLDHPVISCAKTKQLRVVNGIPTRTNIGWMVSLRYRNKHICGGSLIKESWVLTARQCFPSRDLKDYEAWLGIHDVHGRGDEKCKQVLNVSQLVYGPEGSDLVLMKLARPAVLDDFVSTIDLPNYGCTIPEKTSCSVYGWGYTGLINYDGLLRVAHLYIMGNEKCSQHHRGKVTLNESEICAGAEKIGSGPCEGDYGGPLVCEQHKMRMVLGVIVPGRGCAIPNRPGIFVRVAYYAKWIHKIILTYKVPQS
hHGF-Fc G555E (recombinant hHGF protein containing a glycine to glutamate substitution at position 555) (human), sequence (chain, as listed by the source G555E G555E limits assumed): as the sequence (chain, as listed by the source C561R C561R limits assumed) above, with G501E, R507C counted along it

B1: Kappa Hu2B8_Kv3-15.1 / Heavy Chimeric 2B8 (antibody, human IgG1, kappa, V domains shown)
VH: QVQLQQPGAELVKPGTSVKLSCKASGYTFTTYWMHWVNQRPGQGLEWIGEINPTNGHTNYNEKFKSKATLTVDKSSSTAYMQLSSLTSEDSAVYYCARNYVGSIFDYWGQGTTLTVSS
VL: EIVMTQSPATLSVSPGERATLSCKASENVVSYVSWYQQKPGQAPRLLIYGASNRNTGIPARFSGSGSGTEFTLTISSLQSEDFAVYYCGQSYNYPYTFGQGTKLEIKR
notes: also called Chimeric 2B8 IgG1 heavy chain with Hu2B8 Kv3-15.1 + Kappa Constant light chain
In general, koff refers to the rate constant with which the complex falls apart. The kon is the rate constant with which the complex forms. Turning to B1, in experiment [1], the koff worked out at 1.7e-05 s⁻¹ and the kon turned out to be 3.1e+06 M⁻¹ s⁻¹.

B2: Kappa Hu2B8_Kv1-39.1 / Heavy Hu2B8_Hv5-a.1 (antibody, human IgG1, kappa, V domains shown)
VH: EVQLVQSGAEVKKPGESLRISCKGSGYSFTTYWMHWVRQMPGKGLEWMGEINPTNGHTNYNPSFQGHVTISADKSISTAYLQWSSLKASDTAMYYCARNYVGSIFDYWGQGTLVTVSS
VL: DIQMTQSPSSLSASVGDRVTITCKASENVVSYVSWYQQKPGKAPKLLIYGASNRNTGVPSRFSGSGSGTDFTLTISSLQPEDFATYYCGQSYNYPYTFGQGTKLEIKR
notes: also called Hu2B8 Hv5-a.1 + IgG1 Constant heavy chain with Hu2B8 Kv1-39.1 + Kappa Constant light chain
B2: in experiment [1], the koff is 3.8e-05 s⁻¹ and the kon was 2.6e+06 M⁻¹ s⁻¹.

B3: Kappa Hu2B8_Kv1-39.1 / Heavy Hu2B8_Hv1-f.1 (antibody, human IgG1, kappa, V domains shown)
VH: EVQLVQSGAEVKKPGATVKISCKVSGYTFTTYWMHWVQQAPGKGLEWMGEINPTNGHTNYNEKFQGRVTITADTSTDTAYMELSSLRSEDTAVYYCATNYVGSIFDYWGQGTLVTVSS
VL: DIQMTQSPSSLSASVGDRVTITCKASENVVSYVSWYQQKPGKAPKLLIYGASNRNTGVPSRFSGSGSGTDFTLTISSLQPEDFATYYCGQSYNYPYTFGQGTKLEIKR
notes: also called Hu2B8 Hv1-f.1 + IgG1 Constant heavy chain with Hu2B8 Kv1-39.1 + Kappa Constant light chain
Take B3: in experiment [1], the koff stood at 0.0021 s⁻¹ and the kon turned out to be 7.1e+06 M⁻¹ s⁻¹.

B4: Kappa Hu2B8_Kv1-39.1 / Heavy Chimeric 2B8 (antibody, human IgG1, kappa, V domains shown)
VH: QVQLQQPGAELVKPGTSVKLSCKASGYTFTTYWMHWVNQRPGQGLEWIGEINPTNGHTNYNEKFKSKATLTVDKSSSTAYMQLSSLTSEDSAVYYCARNYVGSIFDYWGQGTTLTVSS
VL: DIQMTQSPSSLSASVGDRVTITCKASENVVSYVSWYQQKPGKAPKLLIYGASNRNTGVPSRFSGSGSGTDFTLTISSLQPEDFATYYCGQSYNYPYTFGQGTKLEIKR
notes: also called Chimeric 2B8 IgG1 heavy chain with Hu2B8 Kv1-39.1 + Kappa Constant light chain
With B4, in experiment [1], the koff turned out to be 3.9e-05 s⁻¹ and the kon amounted to 2.8e+06 M⁻¹ s⁻¹.

B5: Kappa Chimeric 2B8 / Heavy Hu2B8_Hv5-a.1 (antibody, human IgG1, kappa, V domains shown)
VH: EVQLVQSGAEVKKPGESLRISCKGSGYSFTTYWMHWVRQMPGKGLEWMGEINPTNGHTNYNPSFQGHVTISADKSISTAYLQWSSLKASDTAMYYCARNYVGSIFDYWGQGTLVTVSS
VL: NIVMTQSPKSMSMSVGERVTLSCKASENVVSYVSWYQQKPAQSPKLLIYGASNRNTGVPDRFTGSGSATDFTLTISSVRAEDLADYHCGQSYNYPYTFGGGTRLEIKR
notes: also called Hu2B8 Hv5-a.1 + IgG1 Constant heavy chain with Chimeric 2B8 Kappa light chain
On to B5, for which, in experiment [1], the koff was determined as 1.1e-05 s⁻¹ and the kon is 2.4e+06 M⁻¹ s⁻¹.

B6: Kappa Hu2B8_Kv3-15.1 / Heavy Hu2B8_Hv5-a.1 (antibody, human IgG1, kappa, V domains shown)
VH: EVQLVQSGAEVKKPGESLRISCKGSGYSFTTYWMHWVRQMPGKGLEWMGEINPTNGHTNYNPSFQGHVTISADKSISTAYLQWSSLKASDTAMYYCARNYVGSIFDYWGQGTLVTVSS
VL: EIVMTQSPATLSVSPGERATLSCKASENVVSYVSWYQQKPGQAPRLLIYGASNRNTGIPARFSGSGSGTEFTLTISSLQSEDFAVYYCGQSYNYPYTFGQGTKLEIKR
notes: also called Hu2B8 Hv5-a.1 + IgG1 Constant heavy chain with Hu2B8 Kv3-15.1 + Kappa Constant light chain
B6: in experiment [1], the koff was found to be 5.9e-05 s⁻¹ and the kon came out at 2.2e+06 M⁻¹ s⁻¹.

B7: chimeric 2B8 (mouse variable regions with human IgG1 (G1m(17,1)) and Kappa (Km(3)) constant regions) (antibody)
heavy: not shown
light: NIVMTQSPKSMSMSVGERVTLSCKASENVVSYVSWYQQKPAQSPKLLIYGASNRNTGVPDRFTGSGSATDFTLTISSVRAEDLADYHCGQSYNYPYTFGGGTRLEIKRTVAAPSVFIFPPSDEQLKSGTASVVCLLNNFYPREAKVQWKVDNALQSGNSQESVTEQDSKDSTYSLSSTLTLSKADYEKHKVYACEVTHQGLSSPVTKSFNRGEC
notes: also called Chimeric 2B8 IgG1; Chimeric 2B8 Kappa (Km(3))
For B7, in experiment [1], the koff came out at 2.7e-05 s⁻¹ and the kon worked out at 2.3e+06 M⁻¹ s⁻¹.

B8: Kappa Chimeric 2B8 / Heavy Hu2B8_Hv1-f.1 (antibody, human IgG1, kappa, V domains shown)
VH: EVQLVQSGAEVKKPGATVKISCKVSGYTFTTYWMHWVQQAPGKGLEWMGEINPTNGHTNYNEKFQGRVTITADTSTDTAYMELSSLRSEDTAVYYCATNYVGSIFDYWGQGTLVTVSS
VL: NIVMTQSPKSMSMSVGERVTLSCKASENVVSYVSWYQQKPAQSPKLLIYGASNRNTGVPDRFTGSGSATDFTLTISSVRAEDLADYHCGQSYNYPYTFGGGTRLEIKR
notes: also called Hu2B8 Hv1-f.1 + IgG1 Constant heavy chain with Chimeric 2B8 Kappa light chain
In the case of B8, in experiment [1], the koff turned out to be 0.0016 s⁻¹ and the association rate constant (kon) came to 2.4e+06 M⁻¹ s⁻¹.

B9: Kappa Hu2B8_Kv3-15.1 / Heavy Hu2B8_Hv1-f.1 (antibody, human IgG1, kappa, V domains shown)
VH: EVQLVQSGAEVKKPGATVKISCKVSGYTFTTYWMHWVQQAPGKGLEWMGEINPTNGHTNYNEKFQGRVTITADTSTDTAYMELSSLRSEDTAVYYCATNYVGSIFDYWGQGTLVTVSS
VL: EIVMTQSPATLSVSPGERATLSCKASENVVSYVSWYQQKPGQAPRLLIYGASNRNTGIPARFSGSGSGTEFTLTISSLQSEDFAVYYCGQSYNYPYTFGQGTKLEIKR
notes: also called Hu2B8 Hv1-f.1 + IgG1 Constant heavy chain with Hu2B8 Kv3-15.1 + Kappa Constant light chain
In the case of B9, in experiment [1], the koff worked out at 0.0037 s⁻¹ and the kon came to 7.8e+06 M⁻¹ s⁻¹.

B10: anti-hHGF monoclonal antibody 1D3 (antibody, mouse IgG1, kappa, V domains shown)
VH: EVQLVESGGGLVQPGGSLKLSCAASGFTFSDYYMSWVRQTPEKRLEWVAYISSGGGSTYYPDSVKGRFTISRDNAKNTLYLQMSSLKSEDTAIYYCVRQGDGYYGDYAMDYWGQGTSVIVSS
VL: DIQMTQSPASLSVSVGETVTITCRTSENIYSNLAWYQQKQGKSPQLLIYAATNLADGVPSRFSGSGSGTQFSLRINSLQSEDFGRYYCQHFWGTPYTFGGGTKLEIKR
notes: Murine IgG1 kappa from hybridoma
As usually defined, the Kd is the concentration at which binding is half-saturated. For orientation: IC50 means the concentration needed to halve the response being measured. On to B10, for which, in experiment [2], the “EC50, inhibition of HGF-stimulated c-Met phosphorylation in PC-3 cells, Average of Two Trials” value is 0.984 nM. Besides, the binding result is on record as “binds” in experiment [3], “no binding” in experiment [4] and “binds” in experiment [5]. For the same molecule, in experiment [6], the “IC50, neutralization of HGF stimulated BrdU incorporation in 4 MBr-5 cells” value came to 4.99 nM. Moreover, the Kd in experiment [7] worked out at 0.0542 nM. The koff in experiment [7] was 8.2e-05 s⁻¹. Further, the on-rate (kon) in experiment [7] amounted to 1.7e+06 M⁻¹ s⁻¹. Further, in experiment [8], the IC50 was 4.43 nM.
